“Also recorded” adds a separate entry of the source. Like-named read-outs stand apart in the source and are kept apart here.
Experiments:
hCCR5_1–31 [1] = test: Epitope mapping with truncated peptides by competitive ELISA; type: binding, human
Text: (§1) The peptide encoding the N-terminal extracellular domain of human CCR5 ([…]-biotin, hCCR5_1–31) was synthesised by the Peptide Synthesis Laboratory, Cancer ResearchUK. The same peptide without the C-terminal cysteine biotin was synthesised by PeptideSynthetics (Fareham PO15 6DP). An analogue of the peptide with sulphated tyrosines at position 10 and 14 was synthesised as described previously and given as a gift by Prof. Fred Naider (City University of New York). The panel of truncated peptides used for epitope mapping (See Results, Subsection “Defining a linear epitope in the N-terminal domain of CCR5”) was synthesised by Sigma (Pepscreen). The chimeric peptide used for immunisation ([…]) was synthesised by the peptide synthesis facility at the University of Ghent. All peptides were >80% pure by HPLC and mass spectroscopy.
The pepscreen panel of CCR5 truncated peptides was screened by competitive ELISA. Antibody supernatant (typically diluted 1 in 1000 or 1 in 4000) was added to N-terminal domain peptide coated ELISA plates in the presence or absence of 1 μg/well of one of the competing peptides. The antibody peptide mixture was incubated overnight, washed and then bound antibody measured as described above.

[2] = system: untransfected controls (CHO cells); test: Flow cytometry binding of antibodies to untransfected controls; set-up: species or system Chinese hamster; settings: normalized to % maximum binding for each antibody
Text: (§2) Chinese hamster ovary cells were transfected by electroporation with vectors expressing human or mouse CCR5 in an expression vector containing a neomycin resistance gene (Genecopoeia, #EX-Z0659-M02 and #EX-Mm01826-M02 respectively). G418 resistant cells were cloned by limit dilution and receptor expressing cells were identified by flow cytometry using RoAb13 anti-CCR5 and Rabbit anti-mouse FITC for human CCR5, and PE anti-Mouse CD195 (CCR5) (clone HM-CCR5, Insight Biotechnology) for mouse CCR5.
(§3) CHO cell transfectants (5 × 10^4) were incubated in 10% goat serum (Sigma) and 0.1% sodium azide for 30 min at 4°C. Purified antibodies or mouse sera at various dilutions were added, and incubated for 2–3 h at 4°C. Cells were washed and bound antibody detected using […] FITC or APC conjugates (R&D Systems). The number of bound antibody molecules was quantified in some experiments using Quikfit calibration beads containing known numbers of bound mouse IgG molecules as per manufacturers instructions (DAKO, #K0078).

[3] = system: CCR5 on human peripheral blood subpopulations; test: Expression of CCR5 on human peripheral blood subsets as detected by RoAb13; type: binding; settings: S2 Fig
Text: Peripheral blood subpopulations were stained using purified RoAb13 Fab fragment directly conjugated with […] as per manufacturer’s instructions.

[4] = system: CHO-CCR5 transfected cells; settings: ref [19]; cited from earlier work
Text: The clear cut inhibitory effects of the antibody even ...

[5] = system: hCCR5_1–31 analogue with sulphated tyrosines at position 10 and 14; test: ELISA binding of RoAb13 to sulphated N-terminal CCR5 peptide; set-up: species or system human
Text: as §1
(§4) 96 well ELISA plates (Nunc) were coated with peptide conjugates (10 μg/ml unless otherwise stated) in coating buffer (0.1 M sodium bicarbonate, pH 8.5), overnight at 4°C. All wells were washed (washing buffer PBS 0.1% Tween-20) and blocked by addition of 2% low fat milk (Tesco) in PBS for at least 1 h at room temperature. […] Unconjugated avidin was used as control coating. […] Bound antibody was detected using alkaline phosphatase coupled rabbit anti-mouse IgG or IgGFab (Sigma) antibody (1:2000 dilution) and substrate (PNPP FAST, Sigma). […]

[6] = system: human CCR5 (CHO cell transfectants); test: Flow cytometry binding of antibodies to CCR5-transfected CHO cells; settings: indirect immunofluorescence
Text: as §2, §3

[7] = system: cell surface CCR5 (expressed on CCR5 transfectants); test: Affinity of RoAb13 for cell surface CCR5 by flow cytometry (Scatchard plot); type: binding, human; settings: abstract value, CCR5-transfected cells
Text: as §2, §3

hCCR5_1–31 [8] = test: ELISA binding of antibodies to the N-terminal CCR5 peptide; set-up: species or system human; settings: peptide coupled to avidin, OD 405 nm
Text: as §1, §4

mouse CCR5 = test: Flow cytometry binding of antibodies to CHO cells transfected with mouse CCR5; settings: normalized to % maximum binding for each antibody
Text: as §2, §3

monocytes = test: Transwell migration assay, monocytes; type: cell-based, human; settings: for migration of monocytes to macrophage conditioned medium: 3 h at 37°C, conditioned medium from resting and activated (LPS) macrophages
Protocol: Peripheral blood mononuclear cells and monocyte derived macrophages were prepared from peripheral blood as previously described. The study was approved by the joint University College London / University College London Hospitals NHS Trust Human Research Ethics Committee and written informed consent was obtained from all participants. […] Conditioned media from these cultures were then centrifuged at 10,000g for 5 minutes and stored at -80°C. Polycarbonate transwell inserts (Corning No. 3421, with […] and 6.5 mm diameter) were placed over 500 μL conditioned media or control media or media containing purified chemokines in 24-well plates. […] of freshly isolated PBMC (5x10^6 cells /mL) were loaded into the upper chamber of the transwell, and incubated for 3 hours at 37°C. Transwells were then lifted out of the lower chamber and the contents of the upper chamber were carefully aspirated. Each transwell filter was subsequently tilted to rinse the under surface twice with 200 μL 0.25% Trypsin-EDTA (Gibco) that was allowed to drain into the well (lower chamber). […] The lower chamber cell suspension was collected and fixed with 1% paraformaldehyde in phosphate buffered saline (PBS). […] A FACScalibur flow cytometer (Becton Dickinson) was used with FlowJo (version 9.4.3) analysis software. 10 000 beads were counted to standardised cell count quantitation in each sample and transmigration of cells in the lower chamber was expressed as the proportion of the input.

[9] = system: hCCR5_1–31 N-terminal domain peptide; test: Affinity of RoAb13 for hCCR5_1–31 peptide by competitive (two-stage) ELISA; type: binding, human; settings: abstract value
Text: as §1, §4

HIV = settings: cited from earlier work
[10] = system: human peripheral blood leukocytes; test: Transwell migration assay, peripheral blood leukocytes; type: cell-based; settings: responses to individual chemokines or inflammatory macrophage conditioned media
Protocol: (§5) Peripheral blood mononuclear cells and monocyte derived macrophages were prepared from peripheral blood as previously described. The study was approved by the joint University College London / University College London Hospitals NHS Trust Human Research Ethics Committee and written informed consent was obtained from all participants. […] Conditioned media from these cultures were then centrifuged at 10,000g for 5 minutes and stored at -80°C. Polycarbonate transwell inserts (Corning No. 3421, with […] and 6.5 mm diameter) were placed over 500 μL conditioned media or control media or media containing purified chemokines in 24-well plates. […] of freshly isolated PBMC (5x10^6 cells /mL) were loaded into the upper chamber of the transwell, and incubated for 3 hours at 37°C. Transwells were then lifted out of the lower chamber and the contents of the upper chamber were carefully aspirated. Each transwell filter was subsequently tilted to rinse the under surface twice with 200 μL 0.25% Trypsin-EDTA (Gibco) that was allowed to drain into the well (lower chamber). […] The lower chamber cell suspension was collected and fixed with 1% paraformaldehyde in phosphate buffered saline (PBS). […] 10 000 beads were counted to standardised cell count quantitation in each sample and transmigration of cells in the lower chamber was expressed as the proportion of the input.

lymphocytes = test: Transwell migration assay, lymphocytes; type: cell-based, human; settings: 3 h, conditioned medium from resting and activated macrophages
Protocol: as §5

## peptide spanning the whole of 5–25: peptide of the pepscreen panel spanning CCR5 residues 5–25 (VSSPIYDINYYTSEPCQKINV; UniProt P51681 5-25, looked up, fragment)
hCCR5_1–31 [1]; competing peptide 1 μg/well, overnight, competitive ELISA
  inhibition of R&D1801 binding to hCCR5_1–31: completely blocked

B1: RoAb13: mouse monoclonal anti-CCR5 antibody from hybridoma line number PZ3733 (Roche Palo Alto); EMBL LN832627 and LN832628 (antibody, V domains shown)
VH: EVQLQESGGGLVKPGGSLKLSCAASGFTFSTYAMSWVRQTPEKRLEWVASISTGDNTYYTDSVRGRFTISRDNARNILYLQMSSLRSEDTAMYFCTRGRGDRGDLFGYWGQGTLVTVSS
VL: DIVMSQSPSSLAVSVGEKVTMSCKSSQSLLYRGNQMNYLAWYQQKPGQSPKLLIYWASTRESGVPDRFTGSGSGTEFTLTISSVKAEDLTVYYCQQYYTYPRTFGGGTKLEIK
[2]
  binding to untransfected controls: less than 5 % of maximum binding
[3]
  detection of CCR5 on CD4, CD8 and NK cells: detected CCR5 on a subpopulation of human peripheral CD4, CD8 and NK cells
  detection of CCR5 on monocytes and B cells: low levels of CCR5 expression
[4]
  block of binding of CCL3, 4 and CCL5: only partial ability to block binding of CCL3, 4 and CCL5
  block of chemokine induced calcium flux: only partial ability
[5]; peptide sulphated at tyrosines 10 and 14
  binding to sulphated vs non-sulphated peptide: bound more strongly (heteroclytic binding) to sulphated than non-sulphated forms of the peptide; also recorded: binding to peptide was significantly enhanced by the sulphation of target tyrosines
[5]; peptide sulphated at tyrosines 10 and 14, listed as RoAb 13
  binding to sulphated vs non-sulphated peptide: binding to the peptide is enhanced by sulfation of tyrosines at positions 10 and 14
[6]
  binding to CCR5-expressing transfectants: bound strongly to CCR5-expressing transfectants; also recorded: quite heterogenous
[7]
  affinity for cells: 6e+08 M⁻¹
hCCR5_1–31 [8]
  recognition of the synthetic N-terminal peptide: recognised the synthetic peptide; also recorded: bound to both linear peptide and native forms of the epitope
Mouse CCR5
  binding to CHO cells transfected with mouse CCR5: less than 5 % of maximum binding
hCCR5_1–31 [1]; competitive ELISA with truncated peptides, defined by inhibition of binding by more than 50%
  core epitope recognised: between aa8 (proline) and 13(asparagine)
monocytes
  migration in response to CCR5 binding chemokines: blocks migration of monocytes in response to CCR5 binding chemokines; also recorded: ability to block chemokine induced monocyte migration; also recorded: inhibits migration induced by chemokines which bind CCR5
  migration of monocytes to macrophage conditioned medium: blocks migration of monocytes; also recorded: inhibits monocyte chemotaxis
monocytes; CCL2, S3 Fig
  migration in response to CCL2: blocked migration
monocytes; CCL3, S3 Fig
  migration in response to CCL3: blocked migration
monocytes; CCL4, S3 Fig
  migration in response to CCL4: blocked migration
monocytes; CXCL12 (acts via CXCR4), S3 Fig
  migration in response to CXCL12: failed to block migration
[9]
  affinity for peptide: 1.2e+07 M⁻¹
HIV; previously shown
  HIV blocking: block HIV infection; also recorded: potent HIV blocking activity
HIV; ref [19],[32]
  inhibition of HIV infection: potent inhibitor of HIV infection
HIV; single round and spreading infection assays, ref [19]
  inhibition of HIV infection: inhibit HIV infection, in both single round and spreading infection assays
[10]
  chemokine or conditioned media induced leukocyte migration: effectively blocked chemokine induced migration of human peripheral blood leukocytes

B2: RoAb13 Fab fragment: Fab fragment of RoAb13 produced by papain digestion; PDB 4S2S (antibody, V domains shown)
VH: B1 VH
VL: B1 VL
lymphocytes
  migration of lymphocytes to macrophage conditioned medium: not lymphocytes
monocytes
  migration of monocytes to macrophage conditioned medium: significant difference from control (T test, p<0.05)
monocytes; listed as Fab fragment of RoAb13
  migration of monocytes to macrophage conditioned medium: significantly inhibited the migration of monocytes

From publication PMC4451072, “A Linear Epitope in the N-Terminal Domain of CCR5 and Its Interaction with Antibody” (PLoS ONE, 2015)
